The values below come from patent US5668107A, “Compositions and methods for inhibiting elastase” (The UAB Research Foundation, priority 1995, dated 1997).

Where no end group is shown, it is not given here.

Assay [1] deals with T1, HNE (human neutrophil elastase) (Homo sapiens, UniProt P08246).
T1 sequence (P08246 30-267): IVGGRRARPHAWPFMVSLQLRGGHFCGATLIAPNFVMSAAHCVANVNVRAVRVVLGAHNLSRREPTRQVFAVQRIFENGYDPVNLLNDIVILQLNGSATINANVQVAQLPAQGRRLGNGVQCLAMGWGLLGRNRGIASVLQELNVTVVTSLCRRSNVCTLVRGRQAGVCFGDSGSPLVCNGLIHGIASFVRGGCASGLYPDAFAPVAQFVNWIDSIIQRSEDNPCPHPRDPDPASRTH
Description: Serine protease assay with p-nitroanilide substrate, HNE. In kind it is biochemical. As for the experimental part: (§1) Serine protease assays were performed using p-nitroanalide amide substrates. Trypsin activity was assayed by using Benzyl-PHE-VAL-ARG-PNA (0.5 mg/ml). Chymotrypsin activity was assayed by using SUC-(ALA)2 -PRO-PHE-PNA (SEQ ID NO:5) (10 mg/ml in DMSO). Elastase activity was assayed by using SUC-(ALA)3 -PNA (10 mg/ml in DMSO). The dilution of each of these enzymes required to produce a change in absorbance of approximately 0.4 after a 15 min incubation at 37° C. was initially determined. The complete reaction mixture contained 10 μls of this enzyme dilution plus 100 μls of the appropriate above substrate and 0-50 uls of the indicated concentration of inhibitor or TBS to maintain constant volume. Trypsin, chymotrypsin, and HNE assays were incubated at 37° C. for 15 min, while pancreatic elastase assays were incubated at 37° C. for 1.5 min. The reaction was terminated by the addition of a sufficient quantity of ice cold TBS to bring each assay up to a final volume of 1 ml. The absorbance of the p-nitroaniline produced was measured against a distilled water blank at 410 nm on a Hitachi model 100-40 spectrophotometer. Percent inhibition was calculated as: 100-[(A1 E+I/A1 E)×100].

Another assay concerns the target Pancreatic elastase (Homo sapiens, UniProt Q9UNI1). Nature of the assay: Serine protease assay with p-nitroanilide substrate, pancreatic elastase. In kind it is biochemical. Conditions: FIG. 2, preliminary enzyme kinetic experiments, desalted SPAAT preparations. The protocol:
as §1

Assay [2] concerns the target Chymotrypsin (Bos taurus, UniProt P00766). Nature of the assay: Serine protease assay with p-nitroanilide substrate, chymotrypsin. In kind it is biochemical. The protocol:
as §1

The target of assay [3] is T2, DFP-treated human neutrophil elastase (Homo sapiens, UniProt P08246).
T2 sequence (P08246 30-247 limits assumed): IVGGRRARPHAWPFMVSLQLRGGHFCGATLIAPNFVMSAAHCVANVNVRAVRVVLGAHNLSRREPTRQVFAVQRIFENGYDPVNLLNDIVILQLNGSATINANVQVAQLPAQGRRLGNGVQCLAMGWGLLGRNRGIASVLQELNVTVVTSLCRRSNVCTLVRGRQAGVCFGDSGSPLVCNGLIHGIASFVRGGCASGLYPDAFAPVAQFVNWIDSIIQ
Description: ELISA binding to DFP-treated HNE. Conditions: FIG. 3A, 10 μg/ml, corrected for non-specific binding to BSA. As for the experimental part:
(§2) Plastic microtiter wells were coated overnight at 4° C. with 100 μls of antigens appropriately diluted in PBS. Plates were washed 3× with approximately 300 μls PBS/well. Any remaining reactive sites were blocked by adding 200 μls 1% BSA in PBS/well and incubating for 1 hr at 37° C. The plates were again washed 3× with approximately 300 μls PBS/well. The rabbit anti-human AAT and HSA polyclonal antibodies were diluted 1/40,000 with PBS containing 0.05% Tween-20. 50 μls of this diluted primary antibody was added/appropriate well. The plate was again incubated for 1 hr at 37° C., then washed 3× with approximately 300 μls PBS/well. 50 μls of an appropriately diluted secondary antibody (goat anti-rabbit IgG diluted 1/16,000) was added/well. The plates were again incubated for 1 hr at 37° C., then washed 5× with approximately 300 μls PBS/well. 50 μls of color developing ortho-phenylenediamine (OPD) solution was added/well. The plates were incubated for 30 min at 37° C. The reaction was finally stopped by the addition of 50 μls/well of 4.5M sulfuric acid and read at 492 nm.
(§3) An ELISA was also developed to quantitate the potential binding affinity of various antigens for AAT (SEQ ID NO:1) and/or SPAAT (SEQ ID NO:4). […]

For assay [4], the target named is T3, DFP-treated human neutrophil cathepsin G (Homo sapiens, UniProt P08311).
T3 sequence (P08311 21-243 limits assumed): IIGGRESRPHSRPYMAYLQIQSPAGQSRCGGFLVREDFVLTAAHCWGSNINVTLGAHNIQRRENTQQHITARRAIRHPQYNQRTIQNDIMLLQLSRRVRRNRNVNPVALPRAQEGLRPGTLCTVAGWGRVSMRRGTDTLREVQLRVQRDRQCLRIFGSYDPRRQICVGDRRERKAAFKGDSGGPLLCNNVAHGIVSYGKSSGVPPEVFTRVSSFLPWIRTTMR
Nature of the assay: ELISA binding to DFP-treated cathepsin G. As to conditions: FIG. 3B, 10 μg/ml, corrected for non-specific binding to BSA. As for the experimental part: as §2, §3
A general note: In an ELISA, binding on a coated surface is turned into a signal by an enzyme label.

Another assay deals with T4, Trypsin (Bos taurus, UniProt P00760).
T4 construct: gene PRSS1
T4 sequence (P00760 24-246): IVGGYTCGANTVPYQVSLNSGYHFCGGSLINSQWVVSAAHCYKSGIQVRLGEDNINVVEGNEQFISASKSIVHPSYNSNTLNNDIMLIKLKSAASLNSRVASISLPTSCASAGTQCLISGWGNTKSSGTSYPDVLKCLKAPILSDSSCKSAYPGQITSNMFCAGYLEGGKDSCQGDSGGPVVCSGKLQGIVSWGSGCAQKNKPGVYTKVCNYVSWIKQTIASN
Nature of the assay: Serine protease assay with p-nitroanilide substrate, trypsin. Conditions: FIG. 2, preliminary enzyme kinetic experiments, desalted SPAAT preparations. In kind it is biochemical. The protocol:
as §1

In assay [5] the target is Chymotrypsin. Nature of the assay: enzyme inhibition kinetics with chymotrypsin, p-nitroanilide substrate.
For assay [6], the target named is human neutrophil elastase (active enzyme) (human) (UniProt P08246).
Where [7] appears, read: FIG. 2, preliminary enzyme kinetic experiments, desalted SPAAT preparations.

Chain of Pancreatic elastase (Q9UNI1 19-258): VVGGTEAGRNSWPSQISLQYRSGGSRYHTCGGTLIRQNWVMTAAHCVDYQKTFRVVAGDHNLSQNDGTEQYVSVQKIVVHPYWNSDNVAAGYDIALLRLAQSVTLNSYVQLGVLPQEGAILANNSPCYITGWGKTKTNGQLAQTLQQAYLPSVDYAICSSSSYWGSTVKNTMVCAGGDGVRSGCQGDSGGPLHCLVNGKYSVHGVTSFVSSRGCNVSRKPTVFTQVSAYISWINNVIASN

For “MFLEAIPMSIPPQVKFNKPFVFLMIEQNTKSPLFMGKVVNPTQK [chemically synthesized SPAAT]”, the “effectiveness as inhibitor of HNE relative to SPAAT isolated from placenta, mole-for-mole” value in assay [1] (ratio of the KI values) is “eight-fold less effective”.
“SPAAT: 44-residue C-terminal fragment of α1 antitrypsin (MET-351 to LYS-394); desalted preparations isolated from human placenta (MFLEAIPMSIPPQVKFNKPFVFLMIEQNTKSPLFMGKVVNPTQK)”: the “inhibition of pancreatic elastase (rank order of inhibition)” value with Pancreatic elastase is “chymotrypsin>HNE>pancreatic elastase”. The “inhibition of chymotrypsin (rank order of inhibition)” value in the assay with Chymotrypsin [2] (setting [7]) is “chymotrypsin>HNE>pancreatic elastase”. Further, the “KI relative to Km, competitive inhibitor of chymotrypsin” value with Chymotrypsin [2] (preliminary calculations from inhibitor concentrations required to totally inhibit chymotrypsin) was ~ 1/10. Also, the “inhibition of HNE activity (compared with native AAT)” value in assay [1] (setting [7]) is given as “almost as well as native AAT”. Further, the “binding to DFP-treated HNE” value in assay [3] is listed as “bound”. Moreover, in assay [4], the “binding to DFP-treated cathepsin G” value is “bound”. The effect on trypsin result in the assay with Trypsin is recorded as “no effect”.
The term Ki denotes a dissociation constant, usually derived from enzyme kinetics or from competition with a known ligand. Low readings indicate tighter binding, high ones weaker binding. Take “placental SPAAT: SPAAT isolated from human placenta, associated with collagen in the placental material (MFLEAIPMSIPPQVKFNKPFVFLMIEQNTKSPLFMGKVVNPTQK)”: the Ki with Chymotrypsin [2] (chymotrypsin as the subject enzyme) came to 920 nM.
As to “α1 Antitrypsin (AMFLEAIPMSIPPEVKFNKPFVFLMIEQNTKSPLFMGKVVNPTQK) [AAT]”, the “binding to DFP-treated HNE” value in assay [3] is listed as “bound”. For the same molecule, the “binding to DFP-treated cathepsin G” value in assay [4] is given as “bound”.
Molecule MFLEAIPMSIPPQVKFNKPFVFLMIEQNTKSPLFMGKVVNPTQK [chemically synthesized SPAAT] yielded an inhibitory constant (Ki) with Chymotrypsin [5] of 7500 nM. In assay [6], the inhibitory effectiveness, mole-for-mole worked out at 8 fold.
In the assay with Chymotrypsin [5], MFLEAIPMSIPPQVKFNKPFVFLMIEQNTKSPLFMGKVVNPTQK [SPAAT isolated from human placenta (44-residue C-terminal fragment of alpha1 antitrypsin)] displayed a Ki of 920 nM.
